Results from the supplement of paper PMC7877785.
± gives the uncertainty stated by the source.

Assay: self-splicing fitness, log relative to wild type (ln ratio); higher = more splicing; Tetrahymena group I intron in knt gene, E. coli kanamycin selection, DiMSum; sequences stand for … in CUCUCU…GGAGGGAAAAGUUAUCAGGCAUGCACCUGGUAGCUAGUCUUUAAACCAAUAGAUUGCAUCGGUUUAAAAGGCAAGACCGUCAAAUUGCGGGAAAGGGGUCAACAGCCGUUCAGUACCAAGUCUCAGGGGAAACUUUGAGAUGGCCUUGCAAAGGGUAUGGUAAUAAGCUGACGGACAUGGUCCUAACCACGCAGCCAAGUCCUAAGUCAACAGAUCUUCUGUUGAUAUGGAUGCAGUUCACAGACUAAAUGUCGGUCGGGGAAGAUGUAUUCUUCUCAUAAGAUAUAGUCGGACCUCUCCUUAAUGGGAGCUAGCGGAUGAAGUGAUGCAACACUGGAGCCGCUGGGAACUAAUUUGUAUGCGAAAGUAUAUUGAUUAGUUUUGGAGUACUCGUGGUCG
Procedure, shortened: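 Library with all eight P1ex-region intron nucleotides randomised, intron inside the knt kanamycin-resistance gene on pET-22b(+), in E. coli BL21(DE3). Cells grew overnight at 37°C or 30°C on LB agar with or without 25 μg/mL kanamycin (plus 100 μg/mL carbenicillin, 50 μM IPTG, 0.2% rhamnose), in six replicate transformations. Pooled colonies were amplicon-sequenced on Illumina HiSeq 2500. DiMSum fitness is the error-weighted combination of wild-type-normalised replicate fold changes, kanamycin versus none.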

Sequence | self-splicing fitness (ln) (30 °C) | self-splicing fitness (ln) (37 °C)
CAUAAGCAAUAUUACGUGUA | -2.6 ± 0.14 | -1.77 ± 0.18
GGUUAGCAAUAUUACGCAGU | -1.5 ± 0.27 | -1.67 ± 0.3
CACGAGCAAUAUUACGUGUC | -3.87 ± 0.2 | -2.52 ± 0.14
AGCUAGCAAUAUUACGAGCU | -2.65 ± 0.19 | -1.92 ± 0.21
AUUGAGCAAUAUUACGGCGC | -0.865 ± 0.23 | -0.384 ± 0.17
AUGGAGCAAUAUUACGUUGU | -2.69 ± 0.17 | -2.48 ± 0.23
AAGAAGCAAUAUUACGUGUU | -2.15 ± 0.13 | -1.61 ± 0.13
CAAGAGCAAUAUUACGAUGC | -2.54 ± 0.32 | -2.31 ± 0.39
UAAUAGCAAUAUUACGUAAA | -3.19 ± 0.2 | -1.88 ± 0.19
ACUCAGCAAUAUUACGCAUG | -2.09 ± 0.15 | -2.23 ± 0.15
GUCAAGCAAUAUUACGCCGC | -2.83 ± 0.28 | -2.35 ± 0.46
ACCAAGCAAUAUUACGCAUA | -1.77 ± 0.068 | -1.44 ± 0.073
CUGUAGCAAUAUUACGACAU | -1.528 ± 0.014 | -0.616 ± 0.033
GUGCAGCAAUAUUACGGGUA | -2.35 ± 0.1 | -2.12 ± 0.12
AAUGAGCAAUAUUACGGCUG | -1.52 ± 0.096 | -1.47 ± 0.16
ACUUAGCAAUAUUACGAGCA | -1.2 ± 0.12 | -0.129 ± 0.13
UAAAAGCAAUAUUACGAUGG | -0.953 ± 0.087 | -0.592 ± 0.11
CCGAAGCAAUAUUACGGUUA |  | -2.08 ± 0.24
AUACAGCAAUAUUACGGUCA | -0.743 ± 0.09 | -0.0276 ± 0.099
CGUCAGCAAUAUUACGGUUU | -2.39 ± 0.098 | -1.97 ± 0.097
AACGAGCAAUAUUACGGACU | -1.88 ± 0.13 | -0.603 ± 0.21
GCUUAGCAAUAUUACGCUAA | -2.91 ± 0.21 | -3.01 ± 0.26
AUCCAGCAAUAUUACGACCU | -1.86 ± 0.2 | 0.313 ± 0.18
GGUCAGCAAUAUUACGAUUA | -0.0947 ± 0.092 | -0.0575 ± 0.092
GCCGAGCAAUAUUACGGGUA | -1.36 ± 0.068 | -0.505 ± 0.068

Sequence | self-splicing fitness (ln) (30 °C) | self-splicing fitness (ln) (37 °C)
UGUAAGCAAUAUUACGAUGG | -2.9 ± 0.13 | -0.756 ± 0.12
CCAUAGCAAUAUUACGGGUA | -3.25 ± 0.27 | -2.87 ± 0.27
CGAAAGCAAUAUUACGCUGC | -3.68 ± 0.23 | -2.69 ± 0.19
AGAGAGCAAUAUUACGCCAG | -3.51 ± 0.35 | -2.94 ± 0.38
CGGCAGCAAUAUUACGAGUC | -1.86 ± 0.34 | -1.76 ± 0.25
GAAGAGCAAUAUUACGUUUC | -2.8 ± 0.14 | -2.74 ± 0.22
GUUUAGCAAUAUUACGUAAU | -1.15 ± 0.1 | 0.127 ± 0.13
ACUGAGCAAUAUUACGACGU | -1.53 ± 0.11 | -1.66 ± 0.15
AGACAGCAAUAUUACGUAGC | -2.07 ± 0.19 | -2.14 ± 0.23
UCCGAGCAAUAUUACGUGCC | -3.03 ± 0.26 | -2.97 ± 0.35
GAGCAGCAAUAUUACGCAAG | -1.36 ± 0.16 | -0.218 ± 0.3
UGAUAGCAAUAUUACGAGCA | -0.12 ± 0.094 | -0.0253 ± 0.14
GAUCAGCAAUAUUACGUGCA | -0.293 ± 0.072 | -0.489 ± 0.085
CCAGAGCAAUAUUACGAGGA | -2.96 ± 0.23 | -2.46 ± 0.27
UAGCAGCAAUAUUACGAGCA | -1.48 ± 0.13 | 0.249 ± 0.13
ACUGAGCAAUAUUACGGGCU | -3.34 ± 0.17 | -2.92 ± 0.25
AUUCAGCAAUAUUACGUUAG | -3.78 ± 0.15 | -1.52 ± 0.1
GCAGAGCAAUAUUACGUCCA | -2 ± 0.25 | -2.98 ± 0.4
CAGCAGCAAUAUUACGUGGC | -3.81 ± 0.25 | -1.67 ± 0.23
UGCGAGCAAUAUUACGACUC | -2.71 ± 0.27 | -2.25 ± 0.25
GUGCAGCAAUAUUACGCGGA | -2.35 ± 0.27 | -1.08 ± 0.12
CAGUAGCAAUAUUACGACGA | -1.39 ± 0.13 | -0.446 ± 0.13
UACAAGCAAUAUUACGGCAC | -1.64 ± 0.14 | -0.345 ± 0.2
GAAUAGCAAUAUUACGCAAC | -2.63 ± 0.21 | -1.77 ± 0.3
UGCAAGCAAUAUUACGGGAA | -2.94 ± 0.16 | -1.33 ± 0.12

Sequence | self-splicing fitness (ln) (30 °C) | self-splicing fitness (ln) (37 °C)
ACGAAGCAAUAUUACGAAGU | -3.44 ± 0.16 | -2.86 ± 0.2
GCCCAGCAAUAUUACGGGGC | -2.87 ± 0.15 | -2.73 ± 0.25
UCCUAGCAAUAUUACGGCUA |  | -2.35 ± 0.27
UCCAAGCAAUAUUACGUUCG | -3.57 ± 0.27 | -2.2 ± 0.21
AGGGAGCAAUAUUACGUCUC | -1.79 ± 0.32 | -2.54 ± 0.48
CCACAGCAAUAUUACGACGA | -3.12 ± 0.19 | -2.09 ± 0.16
GAGAAGCAAUAUUACGACUA | -0.502 ± 0.061 | 0.183 ± 0.082
GCAAAGCAAUAUUACGUGUU | -1.88 ± 0.086 | -1.03 ± 0.11
UCAGAGCAAUAUUACGUGGU | -4.35 ± 0.39 | -1.78 ± 0.22
CCAGAGCAAUAUUACGUCCA | -2.05 ± 0.33 | -1.44 ± 0.35
ACAAAGCAAUAUUACGAGCA | -1.56 ± 0.14 | -0.49 ± 0.12
UCAGAGCAAUAUUACGUUAG | -3.86 ± 0.42 | -3.25 ± 0.35
AAUGAGCAAUAUUACGGAGG | -2.69 ± 0.33 | -2.45 ± 0.38
CAAGAGCAAUAUUACGGAUG | -2.89 ± 0.1 | -2.04 ± 0.12
GCUCAGCAAUAUUACGAAAU | -1.13 ± 0.11 | -0.319 ± 0.12
UUGUAGCAAUAUUACGGGCU | -2.88 ± 0.29 | -1.62 ± 0.22
AAGGAGCAAUAUUACGGCGG | -4.57 ± 0.3 | -2.12 ± 0.32
GAGGAGCAAUAUUACGCAUU | -2.99 ± 0.43 | -0.645 ± 0.33
UUGCAGCAAUAUUACGUCCG | -1.24 ± 0.1 | 0.0449 ± 0.14
CCAGAGCAAUAUUACGGGGU | -2.35 ± 0.43 | -2.78 ± 0.34
UGUAAGCAAUAUUACGAGUG | -2.02 ± 0.13 | -0.484 ± 0.14
UCAAAGCAAUAUUACGGGAU | -2.04 ± 0.16 | -2.46 ± 0.25
CGGCAGCAAUAUUACGUGCU | -3 ± 0.14 | -1.63 ± 0.16
CGUUAGCAAUAUUACGGGUA | -3.15 ± 0.37 | -2.08 ± 0.2
AGCUAGCAAUAUUACGUCAG | -3.09 ± 0.18 | -2.84 ± 0.22
